The text below walks through data of doi:10.1101/2020.05.06.080432.

Holding throughout (assay): MST
Experiment [1] addresses His6-GlnA1 (Methanosarcina mazei) (UniProt Q8PY99).
Experiment [2] deals with His6-GlnK1 (Methanosarcina mazei) (UniProt Q8PYW7).
Experiment [3] concerns the target synthesized sP26 (Davids Biotechnologie), nt-647-NHS-labeled (Methanosarcina mazei).

One may read the Kd as a measure of binding affinity in units of concentration. Consider His6-sP26 (natural protein), for which the Kd in experiment [1] was 45 µM; in experiment [2], 1400 nM.

B1: His6-GlnA1 (enzyme)
chain: MVQMKKCTTKEDVLEAVKERDVKFIRTQFTDTLGIIKSWAIPAEQLEEAFENGVMFDGSSIQGFTRIEESDMKLALDPSTFRILPWRPATGAVARILGDVYLPDGNPFKGDPRYVLKTAIKEAEKMGFSMNVGPELEFFLFKLDANGNPTTELTDQGGYFDFAPLDRAQDVRRDIDYALEHMGFQIEASHHEVAPSQHEIDFRFGDVLCTADNVVTFKYVVKSIAYHKGYYASFMPKPLFGVNGSGMHSNQSLFKDGKNVFYDPDTPTKLSQDAMYYIGGLLKHIREFTAVTNPVVNSYKRLVPGYEAPVYISWSAQNRSSLIRIPATRGNGTRIELRCPDPACNPYLAFALMLRAGLEGIKNKIDPGEPTNVNIFHLSDKEREERGIRSLPADLKEAIDEMKGSKFVKEALGEHVFSHYLCAKEMEWDEYKAVVHPWELSRYLSML
In experiment [3], B1 had a Kd of 76 nM.

B2: His6-GlnK1 (natural protein)
chain: MVAMKYVIAMIRPERLDAVKRELQKIEVSRLTVSSVSGYGAQKGYMEIYRAMEYDANLLEKIKIEIAVNDEFLEPTIEAIKTGAKGSDGYVGSGKIFVLPLENVIRIRTNETGPEAI
In experiment [3], B2 showed an equilibrium dissociation constant (Kd) of 47 nM.
